From PMC10529453 (Cell reports, 2023)
Where two headings read alike, the source gives them in different places.

B1: 10-nt gapped DNA (cryo-EM) (mixed)
DNA 1: CGGTATAGGCGATACGAATCTTTTTTTTTTCCGTATAGCCGTAGCGAGCC
DNA 2: GGCTCGCTACGGCTATACGG
DNA 3: GATTCGTATCGCCTATACCG
B2: 10-nt gap DNA (loading) (mixed)
DNA 1: CGGTATAGGCGATACGAATCTTTTTTTTTTCCGTATAGCCGTAGCGAGCCCGACCATACC
DNA 2: GGTATGGTCGGGCTCGCTACGGCTATACGG
DNA 3: GATTCGTATCGCCTATACCG
modifications: 5' phosphate on primer 2
B3: Mec3 (natural protein, S. cerevisiae, UniProt Q02574 1-474, looked up)
chain: MKLKLIVNGCEAPDDYKLLRTTINTVASLRKTAILRFNSERLTIISTPKSSLNSSNNGTILRGDTGQLWCTIPHDVFRLYTVISARELNTITMECNCDSLLSVFKRYDRVMNQGSSSNMTIKLQSMPEWNTNNGTLSGGTAGGVDTTSKPNPICALGITFEEIVHTSGPNDAIVMNGGVDEHNGLPTTVGTGNLLASNKVIMHSFKVPVKLLFRAQDTRIQEPMINYIQLMMYKLPPISGEFGSAFHGFIRRVERYSNVNHIHLMGVKKKEHGNEGDDVELKIIVNELDWHLEICWNGPLDSVIQRQEGLTDNPSQNQHIDTDGRQEEGSLPIIEADKPMSSLYTNTRDREMEENIRYDEDLLRIEDSSIADTRGNIYTADTSGDTEFNDISVMVEKAEQESSSTHEVIIRCKDWKVCSKLYAAFEEVVLAISHDESCVFHCSLDRGSLEDSEDVEKPRERGQIIYYIARSKGL
B4: Rad17 (natural protein, S. cerevisiae)
chain: MRINSELANKFSASTVHLEHITTALSCLTPFGSKDDVLIFIDADGLSFVRENNHVIKIQLLLSRELFMSYSYRNETEDHMKLCVKINHILDSVSVMNRNSDDIVECTLSYDGHGSPFVLIFEDSFISERVEYSTYLIKDFDTNGLELDRERISFEAIIKGEALHSALKDLKEIGCKECYVYAKTEANDENVFALISKSQLGFSKIKLPSNRSILEKLQVFDGDSTTVIDGFAVIGFFDFTSFDKIRKSTKIASKVLFRMDVHGVLSVNILSQTDDVIITDTTRPSNNRPGSIRQLQLPKDYPGIVIEVCMLEKESIDEAAQTEIELLMETNELGNRNSFKKSTIRKRYGTDKGNETSNDNLLQLNGKKIKLPSEEENNKNRESEDEENHCKYPTKDIPIFF
B5: 5-nt gapped DNA (cryo-EM) (mixed)
DNA 1: CGGTATAGGCGATACGAATCTTTTTCCGTATAGCCGTAGCGAGCC
DNA 2: GGCTCGCTACGGCTATACGG
DNA 3: GATTCGTATCGCCTATACCG

Key:
[1] = target: T1, Rad24-RFC clamp loader;9-1-1 checkpoint clamp (Saccharomyces cerevisiae;Saccharomyces …, UniProt P32641;P40339;P38629;P40348;P38251;Q08949;Q02574;P48581 …, |); assay: cryo-EM
[2] = target: Rad24-RFC clamp loader;32P-9-1-1 checkpoint clamp (Saccharomyces cerevisiae;Saccharomyces …, UniProt P32641;P40339;P38629;P40348;P38251;Q08949;Q02574;P48581 …, |); assay: magnetic bead clamp loading
[3] = target: T2, Ddc1 (S. cerevisiae, UniProt Q08949 1-612); assay: cryo-EM structure
T2 sequence: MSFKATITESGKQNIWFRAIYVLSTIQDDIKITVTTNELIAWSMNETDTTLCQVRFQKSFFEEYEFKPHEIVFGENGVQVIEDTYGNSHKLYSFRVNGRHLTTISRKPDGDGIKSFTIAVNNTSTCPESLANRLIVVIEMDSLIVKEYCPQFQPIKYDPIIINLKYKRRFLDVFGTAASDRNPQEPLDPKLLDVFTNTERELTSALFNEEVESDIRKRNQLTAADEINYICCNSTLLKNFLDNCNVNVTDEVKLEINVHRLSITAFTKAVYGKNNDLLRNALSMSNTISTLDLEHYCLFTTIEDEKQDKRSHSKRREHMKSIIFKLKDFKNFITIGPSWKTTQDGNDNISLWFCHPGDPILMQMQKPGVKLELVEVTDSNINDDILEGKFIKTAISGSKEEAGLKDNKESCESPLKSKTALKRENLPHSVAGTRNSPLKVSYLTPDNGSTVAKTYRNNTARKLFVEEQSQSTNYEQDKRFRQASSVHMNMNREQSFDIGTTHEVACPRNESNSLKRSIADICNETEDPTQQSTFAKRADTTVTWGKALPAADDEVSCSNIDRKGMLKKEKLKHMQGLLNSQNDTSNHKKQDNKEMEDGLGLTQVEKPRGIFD

[4] = target: B3; assay: cryo-EM structure
[5] = target: T1, Rad24-RFC clamp loader;9-1-1 checkpoint …; assay: cryo-EM; remark: listed apart in the source

B1: binds [1].

B2: binds [2].

B3: binds [3].

B4: binds [4].

B5: binds [5].
